Results on 1 substance are retold here after article PMC6054379.

The target of experiment [1] is Staphylococcus aureus protein A (Staphylococcus aureus) (UniProt P38507). Description: particle-based immunoassay read by flow cytometry; protein A covalently coupled (EDC/sulfo-NHS) to 6 μm (PAH/PAA)2 polyelectrolyte microcapsules; 10 μg purified BBM.1 in 1 mL PBS pH 8.2, 2 h; detected with GαM-AF488; dose-response also in PBS pH 7.2 and complete RPMI.
Experiment [2] shares this target. Description: particle-based immunoassay read by flow cytometry; protein A covalently coupled (EDC/sulfo-NHS) to 2.35 μm carboxylated PS beads; 10 μg purified BBM.1 in 1 mL PBS pH 8.2, 2 h; detected with GαM-AF488.

For the substance murine monoclonal antibody BBM.1, the results for the mean fluorescence intensity (MFI) in experiment [1] and in experiment [2] were 33.5 and 12.2, respectively.
